Experiments:
Kv2.1/syntaxin binding = target: T1, Kv2.1/syntaxin binding (Homo sapiens, UniProt Q16623); assay: Co-immunoprecipitation of Kv2.1 with syntaxin from transfected CHO cells; assay type: cell-based; conditions: for effect on Kv2.1/syntaxin binding (co-immunoprecipitation): syntaxin-expressing CHO cells co-transfected with Kv2.1 and peptide plasmid, syntaxin immunoprecipitates probed for Kv2.1
T1 construct: expressed in transfected cells; host or cells: CHO cells
Procedure: For electrophysiological experiments, mixed cortical neuronal/glial cultures were prepared from embryonic day 16 (E16) Sprague-Dawley rats (Charles River Laboratories, Wilmington, Mass., USA). Donor rats were euthanized by gradual CO2 exposure. Cortices were dissociated with trypsin, and the resultant cell suspension, adjusted to 670,000 cells per well, was plated on glass coverslips in 6-well plates as described previously (Hartnett et al., J Neurochem 68, 1836-1845, 1997). Non-neuronal cell proliferation was inhibited after two weeks in culture with 1-2 μM cytosine arabinoside, and cultures utilized at three to four weeks in vitro. For neuronal transfection, cells were treated for five hours in serum-free medium with 2 μL LIPOFECTAMINE™ 2000 (Invitrogen, Carlsbad, Calif.), 50 μL Optimem (GIBCO, Grand Island, N.Y.), and 1.5 μg DNA per well. For CHO cell transfections, cells were plated on coverslips in 24-well plates at a density of 5.6×10^4 cells per well for electrophysiological measurements or in 100 mm dishes at a density of 1.7×10^6 cells per dish for biochemical studies. Cells were treated for 3-4 hours in serum-free medium with a total of 1.2 μL LIPOFECTAMINE™ and 0.28 μg DNA per well for electrophysiology, or 55.1 μL LIPOFECTAMINE™ and 7.33 μg DNA per dish for biochemistry. Following transfection, cells were maintained in F12 medium containing fetal bovine serum at 37° C., 5% CO2 for 24 hours prior to experimentation.
Protein was harvested by washing cell culture dishes with ice cold PBS followed by a short incubation with 1% 3-[(3-cholamidopropyl) dimethylammonio]-1-propanesulfonate buffer. Protein A/G agarose bead slurry (Santa Cruz, Dallas, Tex.) was added to the samples and rocked at 4° C. for 1 hour in order to pre-clear non-specific protein binding. Samples were then incubated overnight at 4° C. with the appropriate immunoprecipitating antibodies. Following another incubation with the bead slurry, the protein samples were prepared/denatured by the addition of sample preparation buffer (625 mM Tris, 25% glycerol, 2% sodium dodecyl sulfate (SDS), 0.01% bromophenol blue and 5% β-mercaptoethanol) and heated at 95° C. for 5 min prior to SDS polyacrylamide gel electrophoresis and immunoblotting.
Protein samples from equal amounts of cell lysate were separated on 10% sodium dodecyl sulfate SDS polyacrylamide gels by electrophoresis using the Mini Protean 3 System (Bio-Rad, Hercules, Calif.). Separated protein bands were transferred onto 0.2 μm nitrocellulose membranes (Bio-Rad), blocked with 1% bovine serum albumin (BSA) in PBS with 0.05% Tween 20 (PBST) at room temperature for 1 hour, and probed with appropriate primary antibodies diluted in PBST. Blots were then incubated with infrared fluorescent goat secondary antibodies at room temperature for 1 hour, visualized using the Odyssey Imaging System (LI-COR Biosciences, Lincoln, Nebr.), and quantified using infrared fluorimetry.
After establishing that C1a effectively precluded the oxidant-induced K^+ current increase in neurons, studies were performed to identify the sub-domains within C1a that could retain the ability to disrupt Kv2.1/syntaxin binding. C1a was divided into overlapping proximal and distal segments, hereafter referred to as C1a411-472 and C1a441-522, respectively. Co-immunoprecipitation experiments were performed to compare the ability of C1a and the smaller segments to displace Kv2.1 from syntaxin. Syntaxin immunoprecipitates of protein samples obtained from CHO cells transfected with a syntaxin-expressing plasmid, and co-transfected with Kv2.1 together with C1a, C1a411-472, or C1a441-522, were probed for Kv2.1.

Kv2.1S800E = assay: Whole-cell K+ current densities in CHO cells expressing Kv2.1S800E; assay type: cell-based; conditions: CHO cells co-transfected with Kv2.1S800E and peptide plasmid
Procedure: For electrophysiological experiments, mixed cortical neuronal/glial cultures were prepared from embryonic day 16 (E16) Sprague-Dawley rats (Charles River Laboratories, Wilmington, Mass., USA). Donor rats were euthanized by gradual CO2 exposure. Cortices were dissociated with trypsin, and the resultant cell suspension, adjusted to 670,000 cells per well, was plated on glass coverslips in 6-well plates as described previously (Hartnett et al., J Neurochem 68, 1836-1845, 1997). Non-neuronal cell proliferation was inhibited after two weeks in culture with 1-2 μM cytosine arabinoside, and cultures utilized at three to four weeks in vitro. […]
Current recordings were performed on eGFP-positive co-transfected neurons or CHO cells using the whole-cell patch clamp configuration technique as described previously (McLaughlin et al., J Neurosci 21, 3303-3311, 2001). […] To determine current density values, steady-state current amplitudes were measured 180 msec after the initiation of the +10 mV step and normalized to cell capacitance. […] By repeatedly adjusting the scaling factor k, an automated binary search algorithm determined threshold synaptic conductance (thresh-gsyn), the conductance required to reach firing threshold (Kullmann et al., J Neurophysiol 91, 542-54, 2004). […]

T1 sequence (Q16623 whole entry): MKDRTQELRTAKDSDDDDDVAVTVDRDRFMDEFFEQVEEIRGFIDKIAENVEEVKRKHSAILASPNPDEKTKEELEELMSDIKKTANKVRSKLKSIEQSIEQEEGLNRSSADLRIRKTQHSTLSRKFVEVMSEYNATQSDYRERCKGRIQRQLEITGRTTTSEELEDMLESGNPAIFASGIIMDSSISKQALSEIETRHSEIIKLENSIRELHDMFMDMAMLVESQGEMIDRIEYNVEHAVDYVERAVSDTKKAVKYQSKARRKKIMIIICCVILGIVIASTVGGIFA

Molecule | ability to displace Kv2.1 from syntaxin with Src kinase overexpression (Kv2.1/syntaxin binding; CHO cells co-transfected with Kv2.1 and Src) | effect on Kv2.1/syntaxin binding (co-immunoprecipitation) (Kv2.1/syntaxin binding) | effect on enhanced K+ currents of Kv2.1S800E (Kv2.1S800E)
C1a441-522: distal segment of C1a, residues 441-522 of rat Kv2.1 (protein, UniProt P15387 441-522, looked up, fragment) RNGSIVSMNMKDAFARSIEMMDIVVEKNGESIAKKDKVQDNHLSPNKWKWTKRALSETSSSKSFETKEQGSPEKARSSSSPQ | retained the ability to displace Kv2.1 from syntaxin | inhibited Kv2.1/syntaxin binding | blocked the increase in currents
C1a: rat Kv2.1 C1a peptide, residues 411-522 of SEQ ID NO: 3, expressed from a plasmid (protein, listed as Rattus norvegicus) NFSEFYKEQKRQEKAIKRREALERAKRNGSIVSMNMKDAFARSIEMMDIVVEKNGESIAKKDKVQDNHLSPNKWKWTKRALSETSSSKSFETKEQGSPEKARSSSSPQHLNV | – | inhibited Kv2.1/syntaxin binding | suppressed the enhanced K^+ currents
